Test results from patent US20050153310A1 (PROMEGA, published 2005).

Biological target: FKBP (FK506 binding protein) (UniProt P62942 2-108)
Experiment: cell-based or functional assay

Chain of FKBP (FK506 binding protein) (P62942 2-108): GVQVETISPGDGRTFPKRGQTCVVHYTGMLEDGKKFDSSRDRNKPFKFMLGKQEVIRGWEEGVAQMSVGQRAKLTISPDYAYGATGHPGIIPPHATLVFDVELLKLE

B1: FRB (rapamycin binding protein) (other)
chain: ILWHEMWHEGLEEASRLYFGERNVKGMFEVLEPLHAMMERGPQTLKETSFNQAYGRDLMEAQEWCRKYMKSGNVKDLTQAWDLYYHVFRRISK
  fold decrease in relative luminescence of the in vitro translated double fusion FRB-luc2-FKBP with 0.2 uM rapamycin, compared to the control reactions: 20 fold
  luminescent signal of D293 cells transfected with FRB-Luc2-FKBP under the CMV promoter, with rapamycin: ≤ 2 fold
  luminescent signal of D293 cells transfected with FRB-Luc2-FKBP under the TK promoter, with rapamycin: ≤ 5 fold
